According to US20130224235A1:

Columns and labels:
Experiment in all cases: indirect ELISA, protein coated, serum 1:100
[1] = target: 6xHis tagged C-terminal fusion protein (gp100 209-217(2M) peptide fused to PVA CP C-terminus) expres (Potato virus A (isolate B11)) (UniProt Q85197)
[2] = target: 6xHis tagged N-terminal fusion protein (gp100 209-217(2M) peptide fused to PVA CP N-terminus) expres (Potato virus A (isolate B11)) (UniProt Q85197)
[3] = target: 6xHis tagged wild type potato virus A coat protein (wtCP) expressed in E. coli from wtCP/pQE (Potato virus A (isolate B11)) (UniProt Q85197)

Measured: optical density at 450 nm

control mouse serum raised against PBS (antibody)
< 0.35 OD 450 nm: all assays above
